Reference: the MegaScale stability set (Tsuboyama et al. 2023)

B1: r16_88_TrROS_Hall (parent)
chain: EVIELKIKFKTPEQREKLKEIAKKLNAEVVEEKDGEVIIRFKTPEQAERALKEAEKLGAEVEL

Variants of: B1
Test: folding stability dG (cDNA display proteolysis); higher = more stable
Conditions: PBS, room temperature
In the case of EVIELKIKFKTPEQREKLKEIAKKLNAEVVEEKDGEVIIRFKTAEQAERALKEAEKLGAEVEL, the “folding stability dG” value is reported as 4.58 kcal/mol. For EVIELKIKFKTPEQREKLKEIAKKLNAEVVEEKDGEVIIRFKTHEQAERALKEAEKLGAEVEL, the “folding stability dG” value was 4.75 kcal/mol. In the case of EVIELKIKFKTPEQREKLKEIAKKLNAEVVEEKDGEVIIRFKTQEQAERALKEAEKLGAEVEL, the “folding stability dG” value is reported as 4.56 kcal/mol. For EVIELKIKFKTPEQREKLKEIAKKLNAEVVEEKDGEVIIRFKTPEQAERALKEREKLGAEVEL, the “folding stability dG” value was 3.4 kcal/mol. In the case of EVIELKIKFKTPEQREKLKEIAKKLNAEVVEEKDGEVIIRFKTPEQAERALKEVEKLGAEVEL, the “folding stability dG” value is reported as 4.43 kcal/mol. With EVIEVKIKFKTPEQREKLKEIAKKLNAEVVEEKDGEVIIRFKTPEQAERALKEAEKLGAEVEL the “folding stability dG” value was 4.29 kcal/mol. For EVIELKIKFKTPEQREKLKEIAKKLNAEVVEEKDGEVIIRFKTPEQAERALKEAEKLGDEVEL, the “folding stability dG” value was 4.28 kcal/mol. In the case of MVIELKIKFKTPEQREKLKEIAKKLNAEVVEEKDGEVIIRFKTPEQAERALKEAEKLGAEVEL, the “folding stability dG” value is reported as 4.3 kcal/mol. For AVIELKIKFKTPEQREKLKEIAKKLNAEVVEEKDGEVIIRFKTPEQAERALKEAEKLGAEVEL, the “folding stability dG” value was 4.45 kcal/mol. In the case of YVIELKIKFKTPEQREKLKEIAKKLNAEVVEEKDGEVIIRFKTPEQAERALKEAEKLGAEVEL, the “folding stability dG” value is reported as 4.34 kcal/mol. With EVIELKIKFKTPEQREKLNEIAKKLNAEVVEEKDGEVIIRFKTPEQAERALKEAEKLGAEVEL the “folding stability dG” value was 4.11 kcal/mol. In the case of EVIELKIKFKTPEQREKLKEIAKKLYAEVVEEKDGEVIIRFKTPEQAERALKEAEKLGAEVEL, the “folding stability dG” value is reported as 4.31 kcal/mol. With EVIELKIKIKTPEQREKLKEIAKKLNAEVVEEKDGEVIIRFKTPEQAERALKEAEKLGAEVEL the “folding stability dG” value was 3.96 kcal/mol. With EVIELKIKFKTPEQREKLKEIAKKLNAEVVEEWDGEVIIRFKTPEQAERALKEAEKLGAEVEL the “folding stability dG” value was 4.45 kcal/mol. In the case of EVIELKIKFKTPEQREKLKEIAKKLNAEVVEEVDGEVIIRFKTPEQAERALKEAEKLGAEVEL, the “folding stability dG” value is reported as 4.35 kcal/mol. In the case of EVIELKIKFKTPEQREKLKEIAKKLNAEVVEEKDGEVIIRFKTPEQAERALKEAEKLGAEKEL, the “folding stability dG” value is reported as 3.84 kcal/mol. For EVIELKIKFKTPEQREKLKEIAKKLNAEVVEEKDGEVIIRFKTPEQAERALKEAEKLGAEDEL, the “folding stability dG” value was 4.72 kcal/mol. In the case of EVIELKIKFKTPEQREKLKEIAKKLNAEVVEEKDGEVIIRFKTPEQAERALKEAEKLGAEPEL, the “folding stability dG” value is reported as 4.14 kcal/mol. In the case of EVIELKIKFKTFEQREKLKEIAKKLNAEVVEEKDGEVIIRFKTPEQAERALKEAEKLGAEVEL, the “folding stability dG” value is reported as 4.85 kcal/mol. With EVIELKIKFKTNEQREKLKEIAKKLNAEVVEEKDGEVIIRFKTPEQAERALKEAEKLGAEVEL the “folding stability dG” value was 4.23 kcal/mol. For EVIELKIKFKTPEQREKLKEIAKKLNAEVVEEKDGEVIIRFKMPEQAERALKEAEKLGAEVEL, the “folding stability dG” value was 4.56 kcal/mol. For EVIELKIKFKTPEQREKLKEIAKKLNAEVVEEKDGEVIIRFKYPEQAERALKEAEKLGAEVEL, the “folding stability dG” value was 4.43 kcal/mol. For EVIELKIKFKTPEQREKLKEIAKLLNAEVVEEKDGEVIIRFKTPEQAERALKEAEKLGAEVEL, the “folding stability dG” value was 4.5 kcal/mol. For EVIELKIKFKTPEQREKLKEIAKKLNAEVVEEKDGEVIIRFKTPEQAERFLKEAEKLGAEVEL, the “folding stability dG” value was 4.38 kcal/mol. With EVIELKIKFKTPEQREKLKEIAKKLNAEVVQEKDGEVIIRFKTPEQAERALKEAEKLGAEVEL the “folding stability dG” value was 4.57 kcal/mol. With EVIELTIKFKTPEQREKLKEIAKKLNAEVVEEKDGEVIIRFKTPEQAERALKEAEKLGAEVEL the “folding stability dG” value was 4.34 kcal/mol. For EVIELFIKFKTPEQREKLKEIAKKLNAEVVEEKDGEVIIRFKTPEQAERALKEAEKLGAEVEL, the “folding stability dG” value was 4.76 kcal/mol. For EVIELAIKFKTPEQREKLKEIAKKLNAEVVEEKDGEVIIRFKTPEQAERALKEAEKLGAEVEL, the “folding stability dG” value was 4.22 kcal/mol. In the case of EVIELYIKFKTPEQREKLKEIAKKLNAEVVEEKDGEVIIRFKTPEQAERALKEAEKLGAEVEL, the “folding stability dG” value is reported as 4.77 kcal/mol. In the case of EVIELWIKFKTPEQREKLKEIAKKLNAEVVEEKDGEVIIRFKTPEQAERALKEAEKLGAEVEL, the “folding stability dG” value is reported as 4.94 kcal/mol. For EVIELKIKFKTPEQREKLKEIAKKLNASVVEEKDGEVIIRFKTPEQAERALKEAEKLGAEVEL, the “folding stability dG” value was 4.1 kcal/mol. For EVIELKIKFKTPEQRRKLKEIAKKLNAEVVEEKDGEVIIRFKTPEQAERALKEAEKLGAEVEL, the “folding stability dG” value was 4.54 kcal/mol. With EVIELKIKFKTPEQRNKLKEIAKKLNAEVVEEKDGEVIIRFKTPEQAERALKEAEKLGAEVEL the “folding stability dG” value was 4.5 kcal/mol. For EVIELKIKFKTPEQREKLKEIAKKLNAEVVEEKDGTVIIRFKTPEQAERALKEAEKLGAEVEL, the “folding stability dG” value was 4.59 kcal/mol. With EVIELKIKFKTPEQREKLKEIAKKLNAEVVEEKDGHVIIRFKTPEQAERALKEAEKLGAEVEL the “folding stability dG” value was 4.68 kcal/mol. With EVIELKIKFKTPEQREKLKEIAKKLNAEVVEEKDGEVIITFKTPEQAERALKEAEKLGAEVEL the “folding stability dG” value was 4.79 kcal/mol. With EVIELKIKFKTPEQREKLKEIAKKLNAEVVEEKDGEVIIRFKTPEQAERALKEAEKPGAEVEL the “folding stability dG” value was 3.32 kcal/mol. With EVIELKIKFKTPEPREKLKEIAKKLNAEVVEEKDGEVIIRFKTPEQAERALKEAEKLGAEVEL the “folding stability dG” value was 3.48 kcal/mol. For EDIELKIKFKTPEQREKLKEIAKKLNAEVVEEKDGEVIIRFKTPEQAERALKEAEKLGAEVEL, the “folding stability dG” value was 4.1 kcal/mol. With EVIELKIKFKTPEQREKLKEIAKKLNAEVVEEKDGEVIIRFKTPEQAERALKTAEKLGAEVEL the “folding stability dG” value was 4.03 kcal/mol. For EVIELKIKFKTPEQREKLKEIAKKLNAEVVEEKDGEVIIRFKTPEQAERALKKAEKLGAEVEL, the “folding stability dG” value was 4.02 kcal/mol. With EVIELKIKFKTPEQREKLKEIAKKLNAEVVEEKDGEVIIRFKTPEQAERALKEAHKLGAEVEL the “folding stability dG” value was 4.21 kcal/mol. For EVIELKIKFKTPEQREKLKEIAKKLNAEVVEEKDGEVIIRFKTPEQAERALKEAYKLGAEVEL, the “folding stability dG” value was 4.66 kcal/mol.
